Measured values taken from article PMC4661472.

What was measured:
[1] = molecular target: TMD0^TAP1 L68C single-cysteine mutant (M553) (human); assay: cross-linking; crude membranes of M553 cells (tapasin-negative) transfected with single-Cys TMD0^TAP1 without tapasin; 1 mM Cu2+(phenanthroline)3, 10 min, 37 °C; non-reducing SDS-PAGE and immunoblot
[2] = molecular target: TMD0^TAP1 L70C single-cysteine mutant (M553) (human); assay: as above
[3] = molecular target: TMD0^TAP1 L107C single-cysteine mutant (M553) (human); assay: as above
[4] = molecular target: TMD0^TAP1 V34C single-cysteine mutant (M553) (human); assay: as above
[5] = molecular target: TMD0^TAP1 V67C single-cysteine mutant (M553) (human); assay: as above
[6] = molecular target: TMD0^TAP1 W33C single-cysteine mutant (M553) (human); assay: as above
[7] = molecular target: TMD0^TAP1 W69C single-cysteine mutant (M553) (human); assay: as above
[8] = molecular target: tapasin (human), wild type, in HeLa cells (UniProt O15533); assay: co-immunoprecipitation with immunoblot densitometry; details: transient transfection of HeLa cells; IP via C-terminal c-Myc tag of TMD0TAP1; three independent experiments
Chain of UniProt O15533 (O15533 21-448): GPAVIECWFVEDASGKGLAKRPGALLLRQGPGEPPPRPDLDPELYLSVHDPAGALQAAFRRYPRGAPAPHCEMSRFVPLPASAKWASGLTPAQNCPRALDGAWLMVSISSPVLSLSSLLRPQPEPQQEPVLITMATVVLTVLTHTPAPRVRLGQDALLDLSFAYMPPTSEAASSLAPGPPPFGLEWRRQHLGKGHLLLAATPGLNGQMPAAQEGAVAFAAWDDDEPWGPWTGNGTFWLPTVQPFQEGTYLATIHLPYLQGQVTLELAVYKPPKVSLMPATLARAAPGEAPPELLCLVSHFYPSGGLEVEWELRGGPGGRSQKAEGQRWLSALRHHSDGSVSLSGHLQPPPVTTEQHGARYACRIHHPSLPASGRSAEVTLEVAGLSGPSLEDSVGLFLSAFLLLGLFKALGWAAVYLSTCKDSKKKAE

| Substance | response [8] | also measured |
| --- | --- | --- |
| TMD0^TAP1 L68C single-cysteine mutant (M553) (domain or fragment) | – | stoichiometry N [1]: 2 |
| TMD0^TAP1 L70C single-cysteine mutant (M553) (domain or fragment) | – | stoichiometry N [2]: 2 |
| TMD0^TAP1 L107C single-cysteine mutant (M553) (domain or fragment) | – | stoichiometry N [3]: 2 |
| TMD0^TAP1 V34C single-cysteine mutant (M553) (domain or fragment) | – | stoichiometry N [4]: 2 |
| TMD0^TAP1 V67C single-cysteine mutant (M553) (domain or fragment) | – | stoichiometry N [5]: 2 |
| TMD0^TAP1 W33C single-cysteine mutant (M553) (domain or fragment) | – | stoichiometry N [6]: 2 |
| TMD0^TAP1 W69C single-cysteine mutant (M553) (domain or fragment) | – | stoichiometry N [7]: 2 |
| TMD0^TAP1, parent of the single-cysteine mutants (Cys-less TAP background) A31C | 22% | – |
| TMD0^TAP1, parent of the single-cysteine mutants (Cys-less TAP background) A106C | 42% | – |
| TMD0^TAP1, parent of the single-cysteine mutants (Cys-less TAP background) A150C | 25% | – |
| TMD0^TAP1, parent of the single-cysteine mutants (Cys-less TAP background) A151C | 47% | – |
| TMD0^TAP1, parent of the single-cysteine mutants (Cys-less TAP background) D32C | 0% | – |
| TMD0^TAP1, parent of the single-cysteine mutants (Cys-less TAP background) L68C | 51% | – |
| TMD0^TAP1, parent of the single-cysteine mutants (Cys-less TAP background) L70C | 27% | – |
| TMD0^TAP1, parent of the single-cysteine mutants (Cys-less TAP background) L105C | 26% | – |
| TMD0^TAP1, parent of the single-cysteine mutants (Cys-less TAP background) L107C | 46% | – |
| TMD0^TAP1, parent of the single-cysteine mutants (Cys-less TAP background) L148C | 12% | – |
| TMD0^TAP1, parent of the single-cysteine mutants (Cys-less TAP background) P108C | 29% | – |
| TMD0^TAP1, parent of the single-cysteine mutants (Cys-less TAP background) P149C | 86% | – |
| TMD0^TAP1, parent of the single-cysteine mutants (Cys-less TAP background) V34C | 17% | – |
| TMD0^TAP1, parent of the single-cysteine mutants (Cys-less TAP background) V67C | 19% | – |
| TMD0^TAP1, parent of the single-cysteine mutants (Cys-less TAP background) W33C | 9% | – |
| TMD0^TAP1, parent of the single-cysteine mutants (Cys-less TAP background) W69C | 81% | – |
